The values that follow come from the domain aggregation screens of Martell et al. (2025).
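Note: 20 min heating vs room temperature control held 20 min.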

A short description of the data set: soluble fraction after stress (log2 fold change); higher = more stays soluble; pooled small domains, quantitative proteomics. As to conditions: stress: 75 degC.
As for “HMEIEEIDYGTFLQMVEDGVVEKIELTDTQIFLTSTVDNDDKVYTTGVMPDQDLTNRLIEAGVVNFGKVV”, the “soluble fraction (log2)” value is 0.134.

Regarding “HMEIFSIEPDSYLGSGEEIASYYREGVTVIVNMAKLSDAESLRMVDFMSGLKLALLGNIKRITKHVYLLTP”, the “soluble fraction (log2)” value was -0.0777.

In the case of “HMEIITIVSDINGKRIDAWLSEKLENYSRSFIQKLIQNENVKVNNNIVKANYKLKNGDAVAVSIPEPV”, the “soluble fraction (log2)” value came out at 0.179.

In the case of “HMEILNYVVSDGQSGIRIDRYLSDSNEDLSRSYIQKLLKEQKVTVQGTFVKANYKVQAGDVITVEVPDMA”, the “soluble fraction (log2)” value was -0.884.

As to “HMEILPAYRDIKKEALLGNINAEFKYVNLLLEHNYIEQAFNIIEDMKTRVDDNPEFEELKSRVADAYLMY”, the “soluble fraction (log2)” value is -1.56.

“HMEILTLEELKRLMAKAKLKQNQISGHAGVSKQQISMILAGKRNITKDVSDNLKANLAEYFP”: the “soluble fraction (log2)” value was -0.651.

In the case of “HMEILVSTRRHEIASLLSRKKRVSFFELFPEKTKEYVVATFLAILEMAKAREVNITQEDTFDEIIVEEA”, the “soluble fraction (log2)” value is -2.18.

Turning to “HMEIPTPAELREKRIRMGLKQADVARMAGISQSMVARIESGSVDPRVSTLAKIVEVLQAAER”, the “soluble fraction (log2)” value was -0.488.

In the case of “HMEISLEAKMAEVREQVRGLAGINFRTLLEMQASRSNIIVTFLAILELMKIGAIQIRQEEIFGEIIIDSRD”, the “soluble fraction (log2)” value was -0.104.

In the case of “HMEISPGDVFKQLPGIGDDLSRRVVESLGIQSLEELESAAHDGRLEQVEGFGERRVQMVRAVLTGMLS”, the “soluble fraction (log2)” value is -0.00517.

Turning to “HMEITTEDIAAQVASWIVRLSEDLTSTDRAALQIEFEQWQQTDSRRAEIAHKMLSLIGQAEQLRKT”, the “soluble fraction (log2)” value is -0.712.

With “HMEKAISSLTLEEAKKRLEMVRSEKDASLQIYKETGSETARVTAENYGKEENSLLLHISEMSNIV”, the “soluble fraction (log2)” value came out at 0.425.

With “HMEKFTGELSQEEKNVLDALSHEEMHVDIIIKLTKLETSAVSSTLSLLEIKGLIKNIGGQNYIK”, the “soluble fraction (log2)” value came out at 0.543.

Regarding “HMEKIIFEISEEGKRLDLYIAERTELTRTRIQQLIKDGNINVNNKKSKPSYKVEKNDFIEMIIPDE”, the “soluble fraction (log2)” value was -1.23.

Turning to “HMEKINLIIEEDNNLRLDKVIAMQLQELSRTQIQDMINQGLVLVNQKKEKASYKTKLNDEIEITILD”, the “soluble fraction (log2)” value was -1.13.

“HMEKKDTYTVKNGDSLWGIARTELGDGGRFREIYTLNADTIEAEAKKRGRSSSSEGHWIYPGSVLRLP”: the “soluble fraction (log2)” value is 0.304.

As for “HMEKKGTVVIATVKGDIHDIGKNIVKVLLENYGFDVIDLGKDVPPEAVVEAVQQSGARLVGLSALM”, the “soluble fraction (log2)” value was -0.898.

Regarding “HMEKKSKLVLAVLQGSDSDNTIRNLNERGFMVTVLSSTGGFLKKKSTTVMIGVEEDRLEEALDVLQKYAG”, the “soluble fraction (log2)” value is -0.549.

Turning to “HMEKKTILIPPVITVRALAEISQIPVNRLLQELIKNGVFTSINEKIDFDTAVIIGADLNLDIQLL”, the “soluble fraction (log2)” value was -1.86.

With “HMEKLPRYILPGVPKVKSINISSALDGLVQDYSREFNISQKDIFQIALVEFFKKYGYHNAVKAVL”, the “soluble fraction (log2)” value was -2.29.

Take “HMEKLSMLKIKELFRLAIEMNLSHRQIAQSLNVSHTVVNRYLKRFKKSNLSYETLLKLGDKEIISALYEH”: the “soluble fraction (log2)” value was -3.67.

For the sequence “HMEKPAQDVLASHREWMGEMIKAEHMTAKQVWRLLRERADIGVSYPTVKRYLRAHFQFGGPS”, the “soluble fraction (log2)” value is -1.57.

On to “HMEKRLDYTFGLNKEQLLYLTKSIKDGDFYNVSFIDGTEKKLNRVGSTKEVHKYVNFLMTNDGIVKK”, for which the “soluble fraction (log2)” value is -0.389.

Take “HMEKSLKELAQGVGQKVLTSGRPYHFDPMSAMERRVVHMTLMEMDGLRTESEGEGRFRHVVVFPA”: the “soluble fraction (log2)” value was -0.0884.

On to “HMEKTEQMQVILDYIARYGEINNEKVQEILGVKRTRAYTILKQMVENGFVTTNGRGEEKKYYSIR”, for which the “soluble fraction (log2)” value is -1.25.

On to “HMEKTIQIYDNIIIKDFAEKMEVSPSQVITKLIGLGVMANLNQPIDINSAVIVGKEFGFNVESM”, for which the “soluble fraction (log2)” value is -1.29.

On to “HMEKVLPFEFERKFKTNHTAWDFFSNQAPPSYRKTVIHWILSAKQEITRISRLEKLIAASEQQKRI”, for which the “soluble fraction (log2)” value was -0.518.

On to “HMEKYIVNQEEQGKRLDIYVVNKSSELTRTAVQRLIEQEHILVNGRKQKASYKVLEGDIITIERV”, for which the “soluble fraction (log2)” value came out at 0.753.

As for “HMEKYTDDLEIAAEIARLETLMEGNGRVLIRPSGTEPLVRVMIEGNDIEQITKLAEDLAALLNKRF”, the “soluble fraction (log2)” value was -0.717.

As for “HMELDFNSVYRQLNHEQKQAYQSIKSVLEQKISGSELDKKLKQAQQAFVAKFKENPNFEVPK”, the “soluble fraction (log2)” value came out at 0.608.

In the case of “HMELDIGKKAIVIEKIDPEAGTGRVRIEGVDWGAKTADSSVIEKGETVVVKAKGAAFVTVAK”, the “soluble fraction (log2)” value was 0.0983.

In the case of “HMELEAFPNPTDMFLSFTTKEKTPLAIYDINGKQVLYVEQITSSSKINVSKLSEGVYFAKTNQGTVKWVK”, the “soluble fraction (log2)” value was -2.35.

In the case of “HMELEQLKSQLTGFLKANREQIFTAQNLADGLRMTDSQGYKQVVNALNASVRDGDVIDIKNGYQYNKN”, the “soluble fraction (log2)” value was 0.0444.

With “HMELEWENYSLAGEIKTTVMLYQNRRNGLPEEAKQKADALMKQLKQAVIENDAQKVEKIDDALTALLFE”, the “soluble fraction (log2)” value is -0.564.

Turning to “HMELGYTPNNLRSVRAKYGLTQKQVAEITGLKTWHPVNRWEAPVEAAYHADMPHTKWLKLLDELSSR”, the “soluble fraction (log2)” value is -1.45.

As to “HMELKYIDYDEALVVYAKTVTASGGGLSGVKDEGGIRKVLDFVQNDLYYPTFVDKLTYLVFGL”, the “soluble fraction (log2)” value came to 0.168.

Turning to “HMELLPAERRQQLVDWFKSNQAGTSQDLARMFGISVSTIRRDLDLLASEGLVKRTHGGAVSIR”, the “soluble fraction (log2)” value was -0.055.

Consider “HMELLPFEFARANRVLLRVNESDLVVSPDANHSAVTEILRLNNNIETIKSVDAEAFDKILSSIYSG”, for which the “soluble fraction (log2)” value was -0.804.

On to “HMELLSVPSRLGTFFLGGEAGHIIRLYLPGDPTPRIAEHETPVLSEARRQLLEYLAGRRTAFSFPL”, for which the “soluble fraction (log2)” value is -0.0691.

As to “HMELNEIEFENLKESIIIHLEKESLSPHELVKHIQTIHPDKVTAVIQWMLENGFIKTDAGGQLTLVSK”, the “soluble fraction (log2)” value was 0.199.

On to “HMELNELTSRELMVAEQVARGASNREISEALSISERTVKAHLSAAFEKLGVRDRVQLALAMNNIPT”, for which the “soluble fraction (log2)” value is -0.106.

As for “HMELNKNDLKIIKNISHIYPYFTPVKILQLILSKKFKTIDYNKILKSTSILTTDRSHLYYILNN”, the “soluble fraction (log2)” value was found to be 0.0816.

Take “HMELPSDEHLDDISHLARIGHKKGLQEKIIQLEQQGLASAEFIQQLKTLTNNFQFEKIIQWVDSEL”: the “soluble fraction (log2)” value is -0.055.

Consider “HMELRIREILESKDIKVSSLAETVGITRANMSNIVNGKSTPSLETLEKIANALGVDITELFA”, for which the “soluble fraction (log2)” value was -0.432.

As to “HMELSAEGWVDGTGVRMRASASTDSEVVRVTEDGESLDITGVSGTWYRVTAGGVSGYIRSDYVSLEEP”, the “soluble fraction (log2)” value was -0.0699.

With “HMELSAQEIGRRLRIARENADIRQDDAAQVIGMSRPTLVSIEKGVRRVRIQEIQMLARHYGVSVNALLR”, the “soluble fraction (log2)” value is -2.2.

For the sequence “HMELSVTDRTRQIRHILKEKGRVEFTSLFEELTKPYVIVTFLSVLEMSKNNELMITQDKTFGSITLEMKG”, the “soluble fraction (log2)” value is -0.446.

In the case of “HMELVIGESLAVELLRPGKEDGQALGYLPDGSMVVVNNGRAFVGKRVTAEIIGVIRSAGGKMVFSNLLGE”, the “soluble fraction (log2)” value is -3.36.

Take “HMEMDITIQMRTLVEELNRASDAYYNGRGELMTDYEWDAKFDQLKQLESQSGVVLPDSPTHRV”: the “soluble fraction (log2)” value is -0.244.

For the sequence “HMEMELNHVARRAGRLSGFLKGELRLSTGLMNRLKWSNAILVNGKPARTNAQVEPGDRITVILD”, the “soluble fraction (log2)” value is -2.35.

For “HMEMLQENIRNLRKAKGWSQEELAIKLNVVRQTVSKWEKGLSVPDSQMLIRIADELDTTVAILLG”, the “soluble fraction (log2)” value is -0.705.

With “HMEMLQRFIFLENVSSTQVESAIKELHPNLNLKRVKLSFPGADTVLLKGPKQDLELAEELIRHLDRSE”, the “soluble fraction (log2)” value is -0.652.

On to “HMEMPGGVMRTLSTIAYNQPVLQSKLVKVRGPRAYEDVHILRDMGLVSARSVGQTVELSTTPKFAEQF”, for which the “soluble fraction (log2)” value is -0.622.

Take “HMENEIFVPKVFMDWYNKVDKSIKVFKAFNLIEKETDPRLKEWVEDNQDEFAKIWLGQLLPVV”: the “soluble fraction (log2)” value is -0.155.

On to “HMENFIPDDPKRIEIGMSVLHQRFGKGKVMQLEGNLPDMKATVNFEGEGQKQLLLKYARLKIV”, for which the “soluble fraction (log2)” value is -0.99.

“HMENIDVGQDYKVTMNTIQNLMKTGLVTGTQYKELLREMGVHSGMGAITAQQHQIALDFLNKTMDSA”: the “soluble fraction (log2)” value is at least 1.04.

On to “HMENIIKISASYEGLRVDQFLSNYLKISRSKVQKYISEEKIFLNNVPTKTNRKVKLDDIISYNLNF”, for which the “soluble fraction (log2)” value was -3.01.

On to “HMENITTILRSIKNEIKKNSTFVGDDFVNQARSMNQGQIKEKSIYGHGTKKEIEELRDEGVDVLNIPWIT”, for which the “soluble fraction (log2)” value is -0.104.

Turning to “HMENKIIKNAAHATLKVKKDAGIEITTELIREAVILFHRIYSPNDNPNINWERIINELESHYT”, the “soluble fraction (log2)” value was -3.66.

Consider “HMENLFPDYTMQDYRIVRSELSSKFKVQTVPVTTATATENKIVRQEPEAGSRITEGMTVILYYSIGPE”, for which the “soluble fraction (log2)” value was -1.51.

On to “HMENLRLSELTVERGHRLAGRTLADIASAPNSPKYLIVLIQRGQETVIPTGSTVILPGDVLILAQS”, for which the “soluble fraction (log2)” value was -1.7.

For “HMENMSFGTKLYTWLYGKLVGSDEIGNKYYTNINDPSDLNAKRWVIFNGEIEASKIPPHWHAWLHKSIDK”, the “soluble fraction (log2)” value was -0.918.

Regarding “HMENMTLGQRIQALRKQHGLSQEGLGERLGVSRQAISRWEMDGAVPEVDKLIAMARLFGVSLNQLLGVE”, the “soluble fraction (log2)” value was -0.193.

As to “HMENNIPANIKALIISYVNQNYPGAVIHSIERNSNGTYDVEIYYNNREYDLLFDAQGNFISGNVDDQ”, the “soluble fraction (log2)” value was -0.0333.

“HMENNIRLSVPDTESGQRIDSYLAEQIPGLTRSAVQNLLAEQAVTIAGKAVKKNYKLLGGEDILVQLPEVR”: the “soluble fraction (log2)” value stood at 0.217.

As for “HMENPPISVVIPPSFRGQRIDKALGSLIGDYSRSKIQQWLQSGLVQSAGEPLLPKYTVLGNEQILIAVPS”, the “soluble fraction (log2)” value was -0.13.

Take “HMENQGEDMRQQVKALVNADKTNITKLATATGYSRSTISMYLAGNYKGDVEAVERRLEEYMKTQG”: the “soluble fraction (log2)” value is -0.0512.

Regarding “HMENSYSVEDLALKAAISVDTIRYYQGLGLISPPQKNGRRAIYGNDHISRLEEIKKLAFEGFSLRQISLL”, the “soluble fraction (log2)” value amounted to 0.111.

Turning to “HMENTIPSVIGRTLSDGVFLLESYGYVKGNVSEEFSEMPIGVIIRQFPGAGSAAEAGTRVDLVVSKGEEIV”, the “soluble fraction (log2)” value is 0.124.

On to “HMENVALYIRLKSMASVYDDVHGYNIEWIKSMIGLSIDIEKLRTVLEDVSWITKVEEDVYSFSKNAKPFE”, for which the “soluble fraction (log2)” value is -4.31.
